Here are results for five sequences from US20170073664A1.

Test in all cases: cell_activity
In series [1] the test system is AAVS-SBI TALEN left (pZT-AAVS1 L1). The following applies: pair with right TALEN, 300 ng donor; control 111.
In a further series the test system is eGFP-TALEN-18-Left. Conditions: pair; clone 6F HEK293; control 324; 95.6% positive in flow.
The next series relates to AAVS original TALEN left. Conditions: pair with right TALEN, HEK293F, 300 ng donor; control 111.
In a further series the test system is eGFP-TALEN-18-right. Conditions: pair; clone 6F HEK293; control 324; 95.6% positive in flow.
The subject of series [2] is AAVS original TALEN right. The following applies: pair with left TALEN, HEK293F, 300 ng donor; control 111.
Series [3] concerns AAVS-SBI TALEN right (pZT-AAVS1 R1). Conditions: pair with left TALEN, 300 ng donor; control 111.

“CCCCTCCACCCCACAGT (double strand) [AAVS left half-site without first T]” returned an activity (blasticidin-resistant colonies) in series [1] of 2800. Take “TCCACCGGTCGCCA (double strand) [eGFP TALEN left half-site]”: in the series with eGFP-TALEN-18-Left, the activity (blasticidin colonies per 10^6 cells) was 1080.

“TCCCCTCCACCCCACAGT (double strand) [AAVS left TALEN half-site]” displayed an activity (blasticidin-resistant colonies) with AAVS original TALEN left of 1420. In the series on eGFP-TALEN-18-right, “CGAGGAGCTGTTCA (double strand) [eGFP TALEN right half-site (TALEN reads complement)]” gave an activity (blasticidin colonies per 10^6 cells) of 1080. As to “TTTTCTGTCACCAATCCT (double strand) [AAVS right TALEN half-site]”, the activity (blasticidin-resistant colonies) turned out to be 1420 in series [2] and 2800 in series [3].
